Measured values reported in IntAct's records for PubMed 22000520.

B1: FHA domain-containing protein FhaA (Mycobacterium tuberculosis (strain ATCC 25618 / P71590 (parent)
chain: MGSQKRLVQRVERKLEQTVGDAFARIFGGSIVPQEVEALLRREAADGIQSLQGNRLLAPNEYIITLGVHDFEKLGADPELKSTGFARDLADYIQEQGWQTYGDVVVRFEQSSNLHTGQFRARGTVNPDVETHPPVIDCARPQSNHAFGAEPGVAPMSDNSSYRGGQGQGRPDEYYDDRYARPQEDPRGGPDPQGGSDPRGGYPPETGGYPPQPGYPRPRHPDQGDYPEQIGYPDQGGYPEQRGYPEQRGYPDQRGYQDQGRGYPDQGQGGYPPPYEQRPPVSPGPAAGYGAPGYDQGYRQSGGYGPSPGGGQPGYGGYGEYGRGPARHEEGSYVPSGPPGPPEQRPAYPDQGGYDQGYQQGATTYGRQDYGGGADYTRYTESPRVPGYAPQGGGYAEPAGRDYDYGQSGAPDYGQPAPGGYSGYGQGGYGSAGTSVTLQLDDGSGRTYQLREGSNIIGRGQDAQFRLPDTGVSRRHLEIRWDGQVALLADLNSTNGTTVNNAPVQEWQLADGDVIRLGHSEIIVRMH
partner: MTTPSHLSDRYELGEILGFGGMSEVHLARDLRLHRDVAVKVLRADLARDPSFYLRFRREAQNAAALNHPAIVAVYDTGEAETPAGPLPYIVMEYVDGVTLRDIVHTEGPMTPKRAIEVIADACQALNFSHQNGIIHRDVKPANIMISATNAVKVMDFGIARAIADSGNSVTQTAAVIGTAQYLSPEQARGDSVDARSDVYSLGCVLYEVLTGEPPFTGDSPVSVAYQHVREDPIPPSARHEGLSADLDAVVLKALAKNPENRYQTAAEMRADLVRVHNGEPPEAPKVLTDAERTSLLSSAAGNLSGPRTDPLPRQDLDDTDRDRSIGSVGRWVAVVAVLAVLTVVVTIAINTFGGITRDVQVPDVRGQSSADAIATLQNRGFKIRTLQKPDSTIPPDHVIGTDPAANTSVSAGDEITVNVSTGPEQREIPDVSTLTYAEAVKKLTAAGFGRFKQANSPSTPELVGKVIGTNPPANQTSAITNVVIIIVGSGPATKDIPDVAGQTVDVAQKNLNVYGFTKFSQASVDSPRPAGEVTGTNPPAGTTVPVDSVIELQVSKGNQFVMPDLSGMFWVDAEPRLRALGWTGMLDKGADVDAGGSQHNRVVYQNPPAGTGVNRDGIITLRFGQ
B2: Serine/threonine-protein kinase PknB (Mycobacterium tuberculosis (strain ATCC 25618 / P9WI81 (parent)
chain: B1 partner
partner: B1 chain

Variants of: B1
Conditions: with pknb_myctu pknB

Variant	effect of a mutation on the interaction
T116A	disrupting interaction

Variants of: B2
Conditions: with fhaa_myctu fhaA

Variant	effect of a mutation on the interaction
T294A	increasing interaction
T309A	increasing interaction
